Experiment: yeast display, Sf9 membrane polyspecificity reagent, FACS + sequencing; frameworks hold sequencing errors
Procedure, shortened: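 Sorting gates, low and high (top ~1%), were placed on anti-HA fluorescence to track expression and on streptavidin fluorescence to track reagent binding. A clone's polyreactivity label is taken from the gate it came out of. The reagent was 10% biotinylated, detergent-solubilized Sf9 membrane, applied for 1 hour at 4 °C to galactose-induced yeast display cells.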

Question: For “QVQLVESGGGLVQAGGRLRLSCAASGITFWNYAMGWYRQAPGKETELVAAITGGSTYYADSVKGRFTISRDYAKNTVYLQMNSLKPEDTAVYYCNADSLFEYWDYDYWGQGTQVTVSS”, which “polyreactivity (PSR sort gate)” value is on record?
Answer: low polyreactivity

Question: Which “polyreactivity (PSR sort gate)” value does the source give for “QVQLVESGGGLVQAGGSLRLSCAASGSIFGINVMGWYRQAPGKERELVAAISRSGSSTYYADSVKGRFTISRDNAKNTVYLQMNSLKPEDTAVYYCNADRSTWTVLVWEYDYWGQGTQVTVSS” here?
Answer: low polyreactivity

Question: Which “polyreactivity (PSR sort gate)” value does the source give for “QVQLVESGGGLVQAGGSLRLSCAASGSTFSGYAKGWYRQAPGTEWELVAAINWNGGRTYYADSVKGRFTISRDNAKNTVYLQMNSLKPEDTAVYYCNAVTRAAYWWTARSTDYDYWGQGTQVTVSS” here?
Answer: high polyreactivity

Question: Which “polyreactivity (PSR sort gate)” value does the source give for “QVQLVESGGGLVQAGGSLRLSCAASGFIFSWYAMGWYRQAPGKERELVAAISKRGGSTYYADSVKGRFTISRDNAKNTVYLQMNSLKPEDTAVYYCAADRLPSGSLVEYWGQGTQVTVSS” here?
Answer: high polyreactivity

Question: Which “polyreactivity (PSR sort gate)” value does the source give for “QVQLVESGGGLVQAGGSLRLSCAASGRIFNAYAMGWYRQAPGKERELVATITGSGGRTHYADSVKGRFTISRDNAKNTVYLQMNSLKPEDTAVYYCAATAQYYHYHLAKYDYWGQGTQVTVSS” here?
Answer: low polyreactivity

Question: Which “polyreactivity (PSR sort gate)” value does the source give for “QVQLVESGGGLVQAGGSLRLSCAASGSISTNYAMGWYRQAPGKERELVAAISSSGGSTYYADSVKGRFTISRDNAKNTVYLQMNSLKPEDTAVYYCRYKFGYWGQGTQVTVSS” here?
Answer: high polyreactivity

Question: Which “polyreactivity (PSR sort gate)” value does the source give for “QVQLVESRGGLVQAGGSLRLSCAASGRIFRYYAMGWYRQAPGKERELVAAITWRGGNTRYADSVKGRFTISRDNAKNTVYLPMNSLKTEDTAVYYCAARGQSAYSIWSYYYWGQGTQVTVSS” here?
Answer: high polyreactivity

Question: For “QVQLVESGGGLVQAGGSLRLSCAASGRTFYYNTMGWYRQAPGKERELVATITSSGGRTYYADSVKGRFTISRDYAKNTVYLQMNSLKPEDTAVYYCNAALSRAFKHSTGYDYWGQGTQVTVSS”, which “polyreactivity (PSR sort gate)” value is on record?
Answer: low polyreactivity

Question: With “QVQLVESGGGLVQAGGSLRLSCADSGRNYIGNAMGWYIHAPGKEPELVAAISSSGGNTYYADSVKGRFTISRDNAKNTVYLQMTSLNPEDNAVYYCAVEVRTLVTYGRSEYYWGQGTKVTVSS” as the sequence, how does the “polyreactivity (PSR sort gate)” value read?
Answer: high polyreactivity

Question: With “QVQLVESGGGLVQAGGSLRLSCAASGYTLDNYAMGWYRQAPGKERELVAGITFSGGSTFYADSVKGRFTISRDNAKNTVYLQMNSLKPEDTAVYYCAADAEFQADHKYGYWGQGSQVTVSS” as the sequence, how does the “polyreactivity (PSR sort gate)” value read?
Answer: low polyreactivity

Question: For “QVQLVESGGGLVQAGGSLRLSCAASGTFGYMGWYRQAPGKERELVAAITSRGGGNTYYADSVKGRFTISRDNAKNTVYLQMNSLKPEDTAVYYCAASRVGYHGQTYDYWGQGTQVTVSS”, which “polyreactivity (PSR sort gate)” value is on record?
Answer: high polyreactivity

Question: With “QVQLVESGGGLVQAGGSLRLSCAASGRIFPVNAMGWYRQAPGKERELVATISSGDITNYADSVKGRFTISRDNAKNTVYLQMNSLKPEDTAVYYCAADYTWRAWTYYGIKYNYWGQGTQVTVSS” as the sequence, how does the “polyreactivity (PSR sort gate)” value read?
Answer: low polyreactivity

Question: For “QVQLVESGGGLVQAGGSLRLSCAASGYTFIVNAMGWYRQAPGKERELVAGISYRGGRTFYADSVKGRFTISRDNAKNTVYLQMTSLKPEDTAVYYCAARKTGIPFYNYDYWGQGTQVTVSS”, which “polyreactivity (PSR sort gate)” value is on record?
Answer: low polyreactivity

Question: For “QGQLGDSGGGLVQAGGSLRLSCAASGLTFWGKVMGWSRPAPGKERELVAAITSGGSTYYADSVKGRFTISRDNAKNTVFLQMNSQKPEDTAVYYCATAFYYSYSEYYYWGQGTQVTVSS”, which “polyreactivity (PSR sort gate)” value is on record?
Answer: high polyreactivity

Question: Which “polyreactivity (PSR sort gate)” value does the source give for “QVQLVESGGGLVQAGGSLRLSCAASGRILRSNAMGWYRQAPVKERELVATISQRGGSTYADSVKGRFTISRDNAKNTVYLQMNSLKPEDTAVYYCNVGVPIGGFMSYWGGDYWGQGTQVTVSS” here?
Answer: low polyreactivity

Question: With “QVQLVESGGGLVQAGGSLRLSSAASGLTFLGYTMGWYRQAPGKARELVAAINYSGGSTYYADSVKGSFTISRDNAKNTVYLQMNSLKPEDPAVYYCAARRAVSGGVRMYYWGQGTQVTVSS” as the sequence, how does the “polyreactivity (PSR sort gate)” value read?
Answer: high polyreactivity

Question: Which “polyreactivity (PSR sort gate)” value does the source give for “QVQLVESGGGLVQAGGSLRLSCAASGYTFASYTMGLYRQAPGKERELVATISRGGGRTYYADSVKGRFTISRDNAKNTVYLQMNSLKPEDTAVYYCATRLYPHQYYYWGQGTQVTVSS” here?
Answer: high polyreactivity

Question: For “QVQLVESGGGLVQAGGSLRLSCAASGYIFKYYAMGWYRQAPGKERELVAAISRSGGSTYYADSVKGRFTISRDNAKNTVYLQMNSLNPEDTAVYYCAADSYYYQGYRRYNYDYWGQGTQVTVSS”, which “polyreactivity (PSR sort gate)” value is on record?
Answer: high polyreactivity

Question: For “QVQLVESGGGLVQAGGSLRLSCAASGSIFYDNAMGWYRQAPGKERELVAAITSTGGSTYYADSVKGRFTISRDNAKNTVYLQMNSLKPEDTAVYYCNTPTYLYWGFYTYDYWGQGTQVTVSS”, which “polyreactivity (PSR sort gate)” value is on record?
Answer: low polyreactivity

Question: For “QVQLVESGGGLVQGGGSLRLSCAASGLILRKYAMGWYRQAPGKEREFVAAITQTGSRTYYADSVKGRFTISRDNAKNTVYLQMNSLKPEDTAVYYCNAVNYRSSRDSGYWGQGTQVTVSS”, which “polyreactivity (PSR sort gate)” value is on record?
Answer: high polyreactivity

Question: For “QVQLVESGGGLVQAGGSLRLSCAASGRNFKYNAMGSYRTAPGKERELVAAISSGGSTKYADSVKGRFTISRDNATKTVYLQMNSLKPEDTAVYYCNAVYTPYRRSFYYWGQGTQVTVSS”, which “polyreactivity (PSR sort gate)” value is on record?
Answer: high polyreactivity

Question: With “QVQLVESGGALVHAGGSLRLSCAASGSTFSGYDMVWYRQAPGKERELVAAISTYYADSVKGRFTISRDNAKTTVFLQMYCLKPEDRAVYYCAKPWGRYDYLGQGTQVTVSS” as the sequence, how does the “polyreactivity (PSR sort gate)” value read?
Answer: low polyreactivity

Question: For “QVQLVESGGGLVQAGGSLRLSCAASGSILLRYAMGWYRQAPGKERELVAAISYDGGGTYYADSVKGRFTISRDNAKNTVYLQMNSLKPEDTAVYYCAADGYSSSGTAYDYWGQGTQVTVSS”, which “polyreactivity (PSR sort gate)” value is on record?
Answer: low polyreactivity

Question: Which “polyreactivity (PSR sort gate)” value does the source give for “QVQLVESGGGLVQAGGSLRLSCAASGYIFDSNVMGWYRQAPGKERELVARIRWSGGSTYYADSVKGRFTISRDNAKNTVYLQMNSLKPEDTAVYYCNVVSYYIAGGWYEGDYWGQGTQVTVSS” here?
Answer: low polyreactivity

Question: With “QVQLVESGGGLVQAGGSLRLSCAASGFTFKKYAMGWYRQAPGKERELVAAISSSGGRTTYADSVKGRFTISRDNAKNTVYLQMNSLKPEDTAVYYCNADRYTAVRAYDYWGQGTQVTVSS” as the sequence, how does the “polyreactivity (PSR sort gate)” value read?
Answer: low polyreactivity

Question: Which “polyreactivity (PSR sort gate)” value does the source give for “QVQLVESGGGLVQAGGSLRLSCAASGSTFDGNAMGWYRQAPGKERELVAAITSGGSTNYADSVKGRFTILRDNAKNTVYLQMNSLKPEDTAVYYCAAGWLYARWHSYVGYYYWGQGTQVTVSS” here?
Answer: low polyreactivity

Question: For “QVQLVESGGGLVQAGGSLRLSCAASGGTFGPYAMGWYSQAPGKERELVATIRSSGGRTYYADSVTGRFTISRDNAKNTVYFQMNSLKPEDTAVYYCAADNLRQFGEYDYWGQGTQVTVSS”, which “polyreactivity (PSR sort gate)” value is on record?
Answer: low polyreactivity

Question: With “QVQLVESGGGLVQAGGSLRLSCAASGRIFRDYDMGWYRQAPGKERELVASISTRGGSTYADSVKGRFTISRDNAKNTVYLQMNSLKPEDTAVYYCAADSSGFSRYDYWGQGSQVTVSS” as the sequence, how does the “polyreactivity (PSR sort gate)” value read?
Answer: low polyreactivity

Question: Which “polyreactivity (PSR sort gate)” value does the source give for “QVQLVESGGGLVQAGGSLRLSCAASGSTFNWDAMGWYRQAPGQERELVAAISKSGGTTYYADSVKGRFTISRDNAKNTVYLQMNSLKPEDTAVYYCAAVRRYHSYPDGGYWGQGTQVTVSS” here?
Answer: high polyreactivity

Question: Which “polyreactivity (PSR sort gate)” value does the source give for “QVQLVESGGGLVHAGGSLRLSCAASGSIFKVYAMGWYRQAPGKERELVASITSGGRTYADSVKGRFTISRDNAKNTVYLQRNSLKPEDTAVYYCSARSRSKFYYWGQGTQVTVSS” here?
Answer: high polyreactivity

Question: For “QVQLVESGGGLVQAGGSLRLSSAASGSTLQYNAMGWYRQAPGKERELVASITWSDGSTYYADSVKGRFTISRDNAKNTVYLQMNSLKPEDTAVYYCNRDDQPALWSSGGYNYWGQGTQVTVSS”, which “polyreactivity (PSR sort gate)” value is on record?
Answer: high polyreactivity

Question: For “QVQLVESGGGLVQAGGSLRLSCAATGLIFGWYAMGWYRQAPGKERELVAAISYSGGRTYYADSVKGRFTISRDNAKNTVYLQMNSLKPEDSAVYYCAAIVLQLRGRGYEYWGQGTQVTVSS”, which “polyreactivity (PSR sort gate)” value is on record?
Answer: high polyreactivity

Question: Which “polyreactivity (PSR sort gate)” value does the source give for “QVQLVESGGGLVQAGGSLRLSSAASGFTFRYYAMGWYRQAPGKERELVAAISWSGGRTYYADSVKGRFTISRDNAKYTVYLQMNILKPEDTAVYYCAADGYPYFYGDFDYSGQGTQVTVSS” here?
Answer: high polyreactivity

Question: Which “polyreactivity (PSR sort gate)” value does the source give for “QVQLVESGGGLVQAGGSLRLSCAASGITFDGYAMGWYRQAPGKEREFVAAISRSGTSTYYADSVKGRFTISRDNAKNTVYLQMNSLKPEDSAVYYCNKKWPRLYYYWGQGTQVTVSS” here?
Answer: high polyreactivity

Question: Which “polyreactivity (PSR sort gate)” value does the source give for “QGQLVESGGGLVQAGGSLRLRCAASGFTFAVNTMGWYRQAPVKERELVAAITASGGSTHYADSVKGRFTISRDNAKNNVYLQMNSLKPEDTAVYYCAARPRLYQYYYWGQGTQVTVSS” here?
Answer: high polyreactivity

Question: With “QVQLVESGGGLVQAGGSLRLSCAASGFIFRFYAMGWYRQAPGKERELVASISRRAGRTYYADSVKGRFTISRDNAKNTVYLQMNSLKPEDTAVYYCAASGFGSFRYSSTYDYWGQCTQVTVSS” as the sequence, how does the “polyreactivity (PSR sort gate)” value read?
Answer: high polyreactivity

Question: With “QVQLVESGGGFVQAGGSLRLSCAASGSTFRWNAMGWYRHAPGKERELDASITAGGSTNYADSVKGRFTISRDNAKNTVYLQINSLTPEDTAVYYCNADVRRSTYYVWLYDYWGQGTQVTVSS” as the sequence, how does the “polyreactivity (PSR sort gate)” value read?
Answer: low polyreactivity

Question: Which “polyreactivity (PSR sort gate)” value does the source give for “QVQLVESGGGLVQAGGSHRLSCAASGFTFIGYPMGWYRQAPGKERELVAAITQSGGSTFYADSVKGRFTISRDNAKNTVYLHMNSLKPEDTAVYYCNAYRKFRYWGHGTQVTVSS” here?
Answer: low polyreactivity

Question: For “QVQLVESGGGLVQAGGSLRLSCADSGRIFVHHDMGRYRQAPGKVRELVATITSGGSTYYADSVKGRFTISRDNAKNTVYLQMNSLKPEDTAVYYCAADSWDYDSRMDYWGQGTQVTVSS”, which “polyreactivity (PSR sort gate)” value is on record?
Answer: low polyreactivity

Question: For “QVQLVESGGGLVQAGGSLRLSCAASGSTFGYNAMGWYRQAPGKEREFVARIRSSGSTTYADSVKGRFTISRDNAKNTVYLQMNSLKPEDTAVYYCAATFRGRYAYYYWGQGTQVTVSS”, which “polyreactivity (PSR sort gate)” value is on record?
Answer: high polyreactivity

Question: With “QVQLVESGGGLVQAGGSLRLSCAASGSILLRNAMGWYRQAPGKERELVAAISRDGGSTYADSVKGRFTISRDNAKNTVYLQMNSLKPEDTAVYYCAKRSYWYDYWGQGTQVTVSS” as the sequence, how does the “polyreactivity (PSR sort gate)” value read?
Answer: high polyreactivity

— the nanobody polyreactivity screen of Harvey et al. (2022)
